According to the supplement of paper PMC9112550, “Optimization of the antimicrobial peptide Bac7 by deep mutational scanning” (BMC Biology, 2022):

Tested on: Escherichia coli TOP10
Experiment: shrunken log2 fold change of peptide-encoding DNA abundance (4.5 h post-induction vs induction); higher = less antimicrobial activity (less host growth inhibition)
Settings: time post-induction: 4.5 h; library: site-saturation at positions 5, 18, 19, 20
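Further: peptides expressed intracellularly from a pBAD plasmid library in pooled LB shake-flask culture, induced with 0.3% L-arabinose, DNA abundance read by NGS, three biological replicates, DESeq2 with apeglm shrinkage.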

Row | Sequence | shrunken log2 fold change
1 | RRIRARPPRLPRPRPRPVLLPRP | 0.122
2 | RRIRNRPPRLPRPRPRPMNQPRP | -0.123
3 | RRIRLRPPRLPRPRPRPTKQPRP | 0.103
4 | RRIRRRPPRLPRPRPRPWWPPRP | 0.0939
5 | RRIRERPPRLPRPRPRPQFTPRP | -0.472
6 | RRIRGRPPRLPRPRPRPHDTPRP | 0.358
7 | RRIRCRPPRLPRPRPRPCRQPRP | 0.0584
8 | RRIRFRPPRLPRPRPRPHRRPRP | 0.189
9 | RRIRVRPPRLPRPRPRPNLMPRP | -0.153
10 | RRIRARPPRLPRPRPRPVPAPRP | 0.814
11 | RRIRYRPPRLPRPRPRPVTSPRP | -0.168
12 | RRIRPRPPRLPRPRPRPKCGPRP | 0.574
13 | RRIRTRPPRLPRPRPRPPSWPRP | 0.345
14 | RRIRPRPPRLPRPRPRPCSLPRP | 0.527
15 | RRIRPRPPRLPRPRPRPLWVPRP | 0.165
16 | RRIRCRPPRLPRPRPRPQNNPRP | -0.526
17 | RRIRGRPPRLPRPRPRPPPTPRP | 1.47
18 | RRIRSRPPRLPRPRPRPRLSPRP | 0.00425
19 | RRIRRRPPRLPRPRPRPKLVPRP | 0.485
20 | RRIRIRPPRLPRPRPRPELQPRP | -0.0107
21 | RRIRWRPPRLPRPRPRPYRSPRP | 0.0201
22 | RRIRTRPPRLPRPRPRPYEHPRP | -0.0707
23 | RRIRTRPPRLPRPRPRPLYCPRP | -0.715

Row | Sequence | shrunken log2 fold change
24 | RRIRNRPPRLPRPRPRPVVDPRP | -0.274
25 | RRIRARPPRLPRPRPRPAANPRP | 0.741
26 | RRIRDRPPRLPRPRPRPFCYPRP | 0.0322
27 | RRIRSRPPRLPRPRPRPPVEPRP | -0.0919
28 | RRIRQRPPRLPRPRPRPNIFPRP | -0.496
29 | RRIRNRPPRLPRPRPRPKGHPRP | -0.104
30 | RRIRMRPPRLPRPRPRPAIMPRP | 0.284
31 | RRIRHRPPRLPRPRPRPFMRPRP | -0.42
32 | RRIRPRPPRLPRPRPRPYAYPRP | -0.192
33 | RRIRIRPPRLPRPRPRPMRRPRP | 0.0307
34 | RRIRSRPPRLPRPRPRPKDLPRP | 0.184
35 | RRIRQRPPRLPRPRPRPTQKPRP | 0.0237
36 | RRIRYRPPRLPRPRPRPLSAPRP | -0.542
37 | RRIRHRPPRLPRPRPRPVQTPRP | -0.011
38 | RRIRARPPRLPRPRPRPDGIPRP | 0.446
39 | RRIRRRPPRLPRPRPRPQGAPRP | -0.0933
40 | RRIRDRPPRLPRPRPRPANGPRP | -0.0137
41 | RRIRSRPPRLPRPRPRPKHSPRP | -0.572
42 | RRIRIRPPRLPRPRPRPCMGPRP | -1.07
43 | RRIRLRPPRLPRPRPRPNGNPRP | -0.218
44 | RRIRVRPPRLPRPRPRPDMYPRP | -0.0946
45 | RRIRVRPPRLPRPRPRPTMEPRP | -0.102
46 | RRIRARPPRLPRPRPRPEVIPRP | 0.349

Row | Sequence | shrunken log2 fold change
47 | RRIRMRPPRLPRPRPRPAESPRP | 0.419
48 | RRIRFRPPRLPRPRPRPWRHPRP | 0.0222
49 | RRIRPRPPRLPRPRPRPKNCPRP | -0.238
50 | RRIRRRPPRLPRPRPRPFHWPRP | -0.111
51 | RRIRARPPRLPRPRPRPVDFPRP | 0.39
52 | RRIRPRPPRLPRPRPRPLDRPRP | -0.000978
53 | RRIRFRPPRLPRPRPRPCQGPRP | -0.198
54 | RRIRTRPPRLPRPRPRPMHFPRP | -0.0728
55 | RRIRSRPPRLPRPRPRPWMGPRP | -0.238
56 | RRIRIRPPRLPRPRPRPFLQPRP | -0.248
57 | RRIRRRPPRLPRPRPRPVILPRP | -0.259
58 | RRIRVRPPRLPRPRPRPLCCPRP | -0.0983
59 | RRIRCRPPRLPRPRPRPHLLPRP | -0.375
60 | RRIRIRPPRLPRPRPRPITHPRP | -0.329
61 | RRIRSRPPRLPRPRPRPPHSPRP | 0.113
62 | RRIRVRPPRLPRPRPRPQNLPRP | -0.672
63 | RRIRTRPPRLPRPRPRPFYEPRP | -0.518
64 | RRIRHRPPRLPRPRPRPHNVPRP | -0.195
65 | RRIRTRPPRLPRPRPRPKTFPRP | -0.00423
66 | RRIRFRPPRLPRPRPRPIYEPRP | -0.632
67 | RRIRARPPRLPRPRPRPFFNPRP | -0.0671
68 | RRIRERPPRLPRPRPRPENGPRP | -0.025
69 | RRIRCRPPRLPRPRPRPSHFPRP | -0.345

Row | Sequence | shrunken log2 fold change
70 | RRIRLRPPRLPRPRPRPIFFPRP | 0.103
71 | RRIRDRPPRLPRPRPRPYPLPRP | 0.215
72 | RRIRNRPPRLPRPRPRPHYNPRP | -0.619
73 | RRIRPRPPRLPRPRPRPCYYPRP | -0.436
74 | RRIRDRPPRLPRPRPRPKKDPRP | 0.199
75 | RRIRERPPRLPRPRPRPADMPRP | -0.0494
76 | RRIRHRPPRLPRPRPRPVIVPRP | -0.204
77 | RRIRVRPPRLPRPRPRPYHRPRP | -2.18
78 | RRIRCRPPRLPRPRPRPMDSPRP | -0.142
79 | RRIRERPPRLPRPRPRPPYMPRP | -1.73
80 | RRIRCRPPRLPRPRPRPHTKPRP | -0.309
81 | RRIRLRPPRLPRPRPRPNFYPRP | -0.141
82 | RRIRPRPPRLPRPRPRPVAIPRP | -0.0776
83 | RRIRFRPPRLPRPRPRPVAMPRP | -0.0306
84 | RRIRCRPPRLPRPRPRPFYTPRP | 0.235
85 | RRIRVRPPRLPRPRPRPEMRPRP | 0.562
86 | RRIRKRPPRLPRPRPRPANQPRP | 0.239
87 | RRIRCRPPRLPRPRPRPVQMPRP | 0.239
88 | RRIRLRPPRLPRPRPRPYNDPRP | -0.0858
89 | RRIRLRPPRLPRPRPRPMPHPRP | 0.0155
90 | RRIRKRPPRLPRPRPRPANWPRP | 0.596
91 | RRIRERPPRLPRPRPRPSCLPRP | -0.484
